These results are taken from US20230242675A1 (SHANGHAI EPIMAB BIOTHERAPEUTICS, published 2023).

The target of assay [1] is human PD-L1/Fc Fusion Protein (human). Briefly: RBA ELISA: coated PD-L1/Fc, competitor biotinylated human PD-1. Here is the method:
ELISA plates were coated with 100 μl of 1 μg/ml of human PD-L1/Fc in PBS and incubated overnight at 4° C. Plates were washed four times in washing buffer (PBS containing 0.05% Tween 20) and blocked for 1 hour at 37° C. with 200 μl per well of blocking buffer (1% BSA in PBS containing 0.05% Tween 20). […] A human IgG was included as negative control. The signal was developed by adding streptavidin-HRP (Cat. No. S2468, Sigma) (100 μl/well at 1:5000 dilution) and incubating for 40 minutes at 37° C., followed by washing four times in washing buffer. Then, 100 μl of TMB solution were added per well. Following color development, the reaction was stopped with 1 N HCl, and absorbance at 450 nm was measured. The data were processed by GraphPad software, and IC50 values were calculated. […] The signal reduction induced by antibody samples was normalized to inhibition percentage, where the negative control was 0% inhibition, and the absolute value of signal reduction of each antibody divided by the signal of the negative control equals the percent inhibition by the antibody.
Background: In an ELISA, binding on a coated surface is turned into a signal by an enzyme label.

Assay [2] addresses T1, human PD-L1/His fusion protein (human, UniProt Q9NZQ7 19-239). Kind of assay: ELISA, coated human PD-L1 protein, anti-human Fc detection. As for the experimental part: (§1) The ability of an antibody to bind human or cynomolgus (cyno) PD-L1 (binding activity) was determined by ELISA. ELISA plates were incubated overnight at 4° C. with 50 μl of the human or cyno PD-L1 protein described above diluted in PBS buffer, pH 7.4, at 1 μg/ml. Plates were washed four times in washing buffer (PBS containing 0.05% Tween 20) and blocked for 1 hour at 37° C. with 200 μl per well of blocking buffer (1% BSA in PBS containing 0.05% Tween 20). After blocking buffer was removed, diluted purified antibodies (200 nM and 1:5 serial dilutions to provide 7 concentrations of each antibody) were added to the wells at 100 μl per well and incubated at 37° C. for 1 hour. The wells were washed four times with washing buffer, and anti-human IgG (Fc-specific) HRP-conjugated antibody (Sigma), diluted 1:10,000, was added to the wells at 100 μl per well. The plates were incubated for 1 hour at 37° C. and washed four times in washing buffer. 100 μl of tetramethylbenzidine (TMB) chromogenic solution were added per well. Following color development, the reaction was stopped with 1 N HCl, and absorbance at 450 nm was measured on a VARIOSKAN™ LUX multimode microplate reader (ThermoFisher Scientific, Vataa, Finland). The data were processed by GraphPad software, and EC50 values were calculated. The EC50 for binding activity according to this ELSA is the concentration at which an antibody induces a response halfway between the baseline and maximum and indicates the binding ability of the antibody.

Assay [3] addresses T1, human PD-L1/His fusion protein. Briefly: BLI Octet RED96, antibody on AHC sensor, single conc. PD-L1/His; test group 1. Here is the method:
(§2) All 15 antibodies in Table 13 were assayed for and ranked by dissociation rate constant (koff). […] Briefly, antibodies were characterized for affinities and binding kinetics by Octet®RED96 biolayer interferometry (Pall ForteBio LLC). Antibodies were captured by Anti-hIgG Fc Capture (AHC) Biosensors (Pall) at a concentration of 100 nM for 30 seconds. Sensors were then dipped into running buffer (1×pH 7.2 PBS, 0.05% Tween 20, 0.1% BSA) for 60 seconds to check the baseline. Binding was measured by dipping sensors into a single concentration of recombinant human PD-L1/His fusion protein (Novoprotein). Dissociation was followed by dipping sensors into running buffer for 1200 seconds. The association and dissociation curves were fitted to a 1:1 Langmuir binding model using ForteBio Data Analysis software (Pall). […] The off-rate ratio serves as a data normalization. Accordingly, in each test group, the off-rate ratios of the humanized antibodies can be compared with that of the chimeric antibody, and the off-rate ratios of each of the humanized antibodies can be compared to one another within all test groups.
Background: Biolayer interferometry detects binding as a change in optical thickness at a sensor tip.

Assay [4] has the same target. Kind of assay: BLI off-rate; test group 1 (reference itself). As for the experimental part: as §2
Assay [5] deals with T2, cynomolgus (cyno) PD-L1/His fusion protein (cynomolgus, UniProt G7PSE7 19-239).
T2 construct: also called cynomolgus PD-L1; not shown: His tag
T2 sequence (G7PSE7 entry or part of it): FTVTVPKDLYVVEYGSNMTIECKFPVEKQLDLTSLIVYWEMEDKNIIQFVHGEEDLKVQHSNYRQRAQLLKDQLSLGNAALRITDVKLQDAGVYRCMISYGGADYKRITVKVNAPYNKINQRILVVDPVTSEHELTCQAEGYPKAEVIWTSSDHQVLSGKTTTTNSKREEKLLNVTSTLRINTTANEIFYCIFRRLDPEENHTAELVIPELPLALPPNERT
Briefly: BLI Octet RED96, cyno PD-L1; cyno PD-L1, not human.

The target in assay [6] is T1, human PD-L1/His fusion protein. Kind of assay: BLI Octet RED96, antibody on AHC sensor, PD-L1/His in solution. Here is the method: Binding of antibodies to PD-L1 was also assessed using biolayer interferometry (BLI) using an Octet® RED96 sensor device (Pall ForteBio LLC). Antibodies were captured by anti-hIgG Fc capture (AHC) Biosensors (Pall) at a concentration of 100 nM for 30 seconds. Sensors were then dipped into running buffer (1×pH7.2 PBS, 0.05% Tween 20, 0.1% BSA) for 60 seconds to check the baseline. Binding was measured by dipping sensors into a series of diluted concentrations of recombinant human PD-L1/His fusion protein. Dissociation was followed by dipping sensors into running buffer for 1200 seconds. The association and dissociation curves were fitted to a 1:1 Langmuir binding model using ForteBio Data Analysis software (Pall). The equilibrium dissociation constant KD (molarity) of the reaction between antibodies and related target proteins was then calculated from the kinetic rate constants using the formula KD=koff/kon.

Assay [7] concerns the target T3, human PD-L1 on the cell surface (CHO-K1 cells stably expressing human PD-L1) (human, UniProt Q9NZQ7 19-290).
T3 construct: whole, on cells; Also used here for PD-L1 on the monocyte-derived dendritic cells of the MLR assay (functional rows); also called CHO-K1/PD-L1; CHOK1-PD-L1
Kind of assay: FACS on CHO-K1/hPD-L1 cells. As for the experimental part: The ability of the purified antibodies to bind to cell membrane human PD-L1 was determined by FACS analysis. CHO-K1 cells stably expressing human PD-L1 (CHO-K1/hPD-L1 cells) were resuspended in PBS containing 2% FBS (FACS buffer) and seeded at 1×10⁵ cells/well into 96-well round-bottomed plates (Corning; Cat. No. 3799). […] The assay plate was then read on a flow cytometer. The data were processed by GraphPad software, and EC50 values were calculated. The EC50 for binding activity according to this FACS analysis is the concentration at which of an antibody induces a response halfway between the baseline and maximum and reflects the binding ability of the antibody.

Assay [8] has as its target T1, human PD-L1/His fusion protein. Briefly: BLI off-rate; test group 2 (reference itself). Here is the method:
as §2

The target is the same in assay [9]. Kind of assay: BLI Octet RED96, antibody on AHC sensor, single conc. PD-L1/His; test group 2. Here is the method: as §2
The target is the same in assay [10]. Briefly: BLI off-rate; test group 3 (reference itself). As for the experimental part: as §2
For assay [11] the target is unchanged. Briefly: BLI Octet RED96, antibody on AHC sensor, single conc. PD-L1/His; test group 3. Here is the method:
as §2

Assay [12] addresses T2, cynomolgus (cyno) PD-L1/His fusion …. Kind of assay: ELISA, coated cyno PD-L1 protein. As for the experimental part:
as §1

T1 sequence (Q9NZQ7 19-239 limits assumed): as the sequence (G7PSE7 entry or part of it) above, with T33A, S34A, N62S, Q68R, R82Q, L173F, A185T, I192T, L215H counted along it
Sequence of human PD-L1/Fc Fusion Protein (human) (chain, as listed by the source limits assumed): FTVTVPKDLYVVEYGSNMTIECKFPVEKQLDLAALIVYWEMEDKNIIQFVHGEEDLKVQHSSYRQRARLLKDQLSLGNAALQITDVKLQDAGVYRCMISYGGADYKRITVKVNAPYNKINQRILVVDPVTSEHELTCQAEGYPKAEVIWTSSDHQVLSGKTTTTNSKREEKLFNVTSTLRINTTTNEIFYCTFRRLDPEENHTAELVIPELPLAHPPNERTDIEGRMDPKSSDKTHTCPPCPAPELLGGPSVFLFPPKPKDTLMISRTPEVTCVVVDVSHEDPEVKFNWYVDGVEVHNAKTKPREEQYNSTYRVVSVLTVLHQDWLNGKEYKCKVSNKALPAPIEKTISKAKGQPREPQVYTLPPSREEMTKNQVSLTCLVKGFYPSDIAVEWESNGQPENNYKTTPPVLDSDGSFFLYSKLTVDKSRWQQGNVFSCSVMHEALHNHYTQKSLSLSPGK
T3 sequence (Q9NZQ7 19-290): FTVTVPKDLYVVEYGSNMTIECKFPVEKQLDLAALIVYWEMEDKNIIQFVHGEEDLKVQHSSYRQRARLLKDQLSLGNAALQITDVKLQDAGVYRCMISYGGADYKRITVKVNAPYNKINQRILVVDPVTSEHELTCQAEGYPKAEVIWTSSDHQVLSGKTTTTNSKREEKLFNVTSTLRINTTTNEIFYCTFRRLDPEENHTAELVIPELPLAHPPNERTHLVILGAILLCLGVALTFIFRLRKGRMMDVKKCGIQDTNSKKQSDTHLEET

B1: EM0005-mAb86c (antibody, human IgG1, kappa, V domains shown)
VH: QVQLQQSGAELVRPGSSVKMSCKTSGYTFTTYGINWVKQRPGQGLEWIGYIYIGNGYTEYNEKFKGKATLTSDPSSRTAYMQLSSLTSEDSAIYFCARDLMVIAPKTMDYWGQGTSVTVSS
VL: DIQMNQSHKFMSTSVGDRVSITCKASQDVGTAVAWYQQKPGQSPKLLIYWASTRHTGVPDRFTGGGSGTDFTLTISNVQSEDLADYFCQQYSSYPYTFGGGTKLEMKR
notes: Chimeric full-length IgG1; also called EM0005-86c; EM0005-86C
As usually defined, the IC50 is the concentration needed to halve the response being measured. Usually EC50 stands for the concentration needed to bring the measured effect to its halfway point. Low readings indicate an effect from little substance, high ones a need for much substance. What is called koff is a measure of how fast the partners let go of each other. As a reminder, the Kd is the equilibrium constant for the complex coming apart. In the case of B1, the IC50 in [1] is 1.09 nM. In addition, in [1], the “Inhibition (percent)” value came out at 97.4%. The EC50 was 0.14 nM in assay [2], 0.22 nM in assay [7] and 0.1 nM in assay [12]. Further, the koff in [3] was found to be 0.00123 s⁻¹; in assay [9], 0.00179 s⁻¹; in [11] it was 0.00103 s⁻¹. The “Off-Rate Ratio to that of EM0005-86c” value in assay [4], in assay [8] and in assay [10] was 100% in each case. The Kd in [5] came to 0.373 nM; in assay [6] it was 0.261 nM.
